Target: T1, recombinant human TNFR2 (SinoBiological, 10417-H03H) (human, UniProt P20333 23-257)
T1 construct: Bought protein; also called human recombinant TNFR2
T1 sequence (looked up): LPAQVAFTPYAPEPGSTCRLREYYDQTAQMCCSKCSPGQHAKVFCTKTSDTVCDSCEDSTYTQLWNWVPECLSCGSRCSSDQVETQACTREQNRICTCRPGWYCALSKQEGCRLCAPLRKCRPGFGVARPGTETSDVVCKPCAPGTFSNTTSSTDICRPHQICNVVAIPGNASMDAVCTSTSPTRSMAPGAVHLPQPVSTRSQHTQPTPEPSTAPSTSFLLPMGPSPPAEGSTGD
Experiment: ELISA on plate-coated recombinant human TNFR2, detection with anti-camelid-VHH-HRP; the axis is the lysate concentration
Description: The prepared positive clone lysate was subjected to ELISA affinity detection. The specific method was as follows: a 96-well ELISA plate was coated with 2 μg/mL recombinant human TNFR2 and incubated overnight at 4° C.; the next day, the well plate was washed 3 times with PBST, 5% skim milk was added, and blocking was performed for 2 h; subsequently, the well plate was washed 3 times with PBST, gradiently diluted positive clone lysates were added, and incubation was performed for 1 h; subsequently, the well plate was washed 3 times with PBST, Rabbit Anti-Camelid-VHH-HRP (Genescript, A01861-200) diluted at 1:8000 was added, and incubation was performed for 1 h; subsequently, the well plate was washed 6 times with PBST, TMB (SurModics, TMBS-1000-01) was added for color development in the dark for 5-10 min, and 2 M HCl was added to stop the reaction according to the color development results; the values at OD450 were read by a microplate reader (Molecular Devices, SpecterMax 190) and fitted by four parameters.

B1: NB92-161 VHH (positive clone lysate from E. coli) (VHH)
VHH: EVQLVESGGGLVQPGGSLRLSCAASGSIFSINDMGWYRQAPGKQRELVAAIGRGGGSTNYADSVKGRFTISRDNAKNTVYLQMNSLKPEDTAVYYCHAEISQLTWAFRDYWGQGTQVTVSS
notes: Tested as crude bacterial lysate from the phage display vector
- EC50 (read off the curve): ~0.2 mg/L
